Values of other authors in PMC10062658.

Target: PTH1R (Homo sapiens) (UniProt Q03431)
Chain of UniProt Q03431 (Q03431 27-593): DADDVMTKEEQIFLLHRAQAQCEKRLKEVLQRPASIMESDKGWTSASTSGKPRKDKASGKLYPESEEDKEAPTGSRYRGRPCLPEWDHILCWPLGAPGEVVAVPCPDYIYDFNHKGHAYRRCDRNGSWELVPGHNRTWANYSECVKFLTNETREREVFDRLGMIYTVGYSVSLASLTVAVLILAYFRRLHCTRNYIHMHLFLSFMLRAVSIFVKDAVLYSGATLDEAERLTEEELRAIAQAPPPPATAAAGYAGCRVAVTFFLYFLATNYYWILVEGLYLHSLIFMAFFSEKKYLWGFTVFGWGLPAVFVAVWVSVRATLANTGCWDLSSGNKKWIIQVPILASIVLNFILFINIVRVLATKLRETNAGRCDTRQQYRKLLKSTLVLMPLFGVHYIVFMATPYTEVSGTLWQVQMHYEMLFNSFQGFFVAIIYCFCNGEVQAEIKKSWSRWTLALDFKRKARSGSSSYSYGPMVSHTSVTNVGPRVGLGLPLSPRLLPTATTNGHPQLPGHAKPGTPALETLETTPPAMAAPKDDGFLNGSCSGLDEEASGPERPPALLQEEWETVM

For PTH (from UniProt P01270), the Kd is given as 1 nM.
